# Reference: PMC11986026
# Experiments:
# Experiment in all cases: cryo-EM structure; purified Wzc at ~2 mg/ml in LMNG, incubated with 1 mM ADP and 10 mM MgCl2 at 4 °C for 1 h; maps refined without symmetry (C1) or with C8 symmetry; octamer of one protein
# [1] = molecular target: Wzc^K540M2YE (K540M, Y718E, Y717E) from E. coli serotype K30 (E. coli K30) (UniProt P76387)
# [2] = molecular target: Wzc^K540M3YE (K540M, Y718E, Y717E and Y715E) from E. coli serotype K30 (E. coli K30) (UniProt P76387)
# [3] = molecular target: Wzc^K540M3YE_N711Y (K540M, Y718E, Y717E, Y715E and N711Y) from E. coli serotype K30 (E. coli K30) (UniProt P76387)
substance,measurement,setting,value
"Wzc^K540M2YE (K540M, Y718E, Y717E) from E. coli serotype K30 (from UniProt P76387 1-720) (enzyme)",stoichiometry N,[1],8
"Wzc^K540M3YE (K540M, Y718E, Y717E and Y715E) from E. coli serotype K30 (from UniProt P76387 1-720) (enzyme)",stoichiometry N,[2],8
"Wzc^K540M3YE_N711Y (K540M, Y718E, Y717E, Y715E and N711Y) from E. coli serotype K30 (from UniProt P76387 1-720) (enzyme)",stoichiometry N,[3],8
